Entries after “also recorded” stand apart in the source; their conditions may differ. Where no end group is shown, it is not given here.
Key:
MDA-MB-231 cells [1] = test: 3D scratch wound assay in Matrigel; assay type: cell-based, human; settings: MMP inhibitor, 25 µM
Procedure: The 3D scratch wound assay was performed as described in Meirson et al. Targeting invadopodia-mediated breast cancer metastasis by using ABL kinase inhibitors. Oncotarget 2018; 9: 22158-22183. Briefly, 96 well Image Lock microtiter plates (Essen Bioscience) were coated with 100 μg/ml Matrigel (cat #354234; Corning, New-York, NY, USA). Following overnight incubation at 37° C., MDA-MB-231 cells were plated at a final concentration of 350,000 cells/ml and allowed to adhere for 12-16 h in the presence of Pyk2-PRR or control peptides. Following wounding of the bottom Matrigel-cells layer, a top layer of Matrigel was added to a final concentration of 2 mg/ml and allowed to polymerize for 30 min at 37° C. Pyk2-PRR or control scrambled peptides were then added again in DMEM/10% FBS to a final concentration of 0.1, 1, or 5 μM, with or without the MMP inhibitor GM6001 ([…]). Plates were placed in a 37° C. heated chamber, and images were collected using the IncuCyte® Zoom platform (Essen Bioscience; 20×, NA 0.60, air objective). Phase images were collected every one hour for a total of 12 h using the IncuCyte® acquisition software.

cortactin SH3 domain = target: T1, cortactin SH3 domain (Mus musculus, UniProt Q60598); test: NMR affinity determination, binding of peptides to purified cortactin-SH3; settings: for loss of affinity: mutant versus Pyk2-PRR2
T1 construct: nucleotides1468-1641); 6xHis (N, cleaved yes); made in house; host or cells: E. coli BL21 (DE3)
Procedure: The DNA sequence encoding the SH3 domain of the mouse cortactin SH3 domain (GenBank ID U03184; nucleotides1468-1641) was sub-cloned into a pET-28a plasmid (Novagen, Merck) in frame with the cleavable N-terminal 6×His tag. Isotopically labeled cortactin-SH3 for heteronuclear NMR experiments was expressed in transformed E. coli BL21 cells (DE3) grown in the presence of kanamycin (50 mg/1) and chloramphenicol (34 mg/1) at 37° C. in M9 minimal medium. For ^15N (^13C) labeling the medium contained 1 g/L of ^15NH4Cl (4 g/L ^13C6-glucose), and 0.25 g/l of appropriately labeled Celtone Base Powder (Cambridge Isotope Laboratories, Andover, MA) was added. For triple-labeled ^2H,^13C,^15N—SH3, expression began in 100 ml of the above medium grown to an OD600 of 0.4-0.5 and gently centrifuged. Pellets were then resuspended in 500 ml filter-sterilized D20-based ^15N-M9 supplemented with ^2H7-^13C6-glucose (2 g/1) and DCN-Isogro (0.25 g/1) to reach a final OD600 of −0.1. In both cases cells were then grown at 37° C. and induced with 0.5 mM isopropyl β-D-1-thiogalactopyranoside (IPTG) upon reaching OD600-0.8, followed by overnight growth at 27° C. To purify the SH3 domain, cells were harvested by centrifugation, subjected to a single freeze-thaw cycle, and resuspended in lysis buffer (50 mM NaPi pH 8.0, 300 mM NaCl, 1 mM dithiothreitol (DTT), 100 ml per liter of culture) supplemented with 1 tablet EDTA-free protease inhibitor cocktail (Merck) and benzamidine (5 mM). Cells were lysed by French press, followed by addition of benzamidine (final concentration 10 mM) and phenylmethylsulfonyl fluoride (PMSF, 1 mM), and the lysate was clarified by centrifugation. The supernatant was loaded on a HisTrap HP column (GE Healthcare, Chicago, IL, USA) equilibrated with lysis buffer and the protein eluted through a gradient (Buffer B: 50 mM NaPi pH 8.0, 100 mM NaCl, 300 mM imidazole, 1 mM DTT). To the fraction eluting at ˜40% B purified tobacco etch virus (TEV) protease (1:30 mol:mol) was added, and the mixture dialyzed overnight at 4° C. against dialysis buffer (50 mM NaPi at pH 8.0, 100 mM NaCl, 1 mM DTT). The dialysate was brought to a final concentration of ˜5 mM imidazole, filtered, and loaded onto a HisTrap column. The collected flowthrough was dialyzed against 20 mM Tris (pH 7.5), 1 mM DTT for 3 h to reach a final concentration of 10 mM NaCl. […]
Purified SH3 was dialyzed against NMR sample buffer (30 mM NaPi, pH ˜6.5) and concentrated to the desired concentration in an Amicon concentration tube (3 kDa MWCO) (Merck). […] For quantitative titrations, purchased peptides were dissolved in 100-300 μl NMR sample buffer, and samples at varying (SH3:PRR2 1:0-1:6, SH3 concentration constant at 0.1 mM) ratios were prepared. Fittings were performed with 5-6 measured points. […]

MDA-MB-231 cells [2] = test: 2D single-cell random migration assay; assay type: cell-based, human; settings: highest (higher) peptide concentration; 12 hours; compared to control peptide; data not shown
Procedure: The 2D single-cell random migration assay was performed as previously described in Genna et al. Pyk2 and FAK differentially regulate invadopodia formation and function in breast cancer cells. J Cell Biol 2018; 217: 375-395. In brief, 6-well microtiter plates were coated with 10 μg/ml fibronectin and blocked with 1% denatured BSA. Peptide pre-treated cells were plated at 20,000 cells/well in DMEM/10% FBS containing peptides and allowed to adhere for 12-16 h. Plates were placed in a 37° C. heated chamber, and images were collected using the IncuCyte® Zoom platform (Essen Bioscience, Ann Arbor, MI, USA; 20×, NA 0.60, air objective). Phase images were collected every one hour for a total of 12 h using the IncuCyte® acquisition software. Trajectory plots, accumulated distance (total cell path length), Euclidean distance (the shortest distance between the starting point and endpoint of migration), and velocity were calculated using the chemotaxis and migration tool (ibidi GMBH, Grafelfing, Germany).

MDA-MB-231 cells [3] = test: Invadopodium precursor formation assay; assay type: cell-based, human; settings: at higher peptide concentrations
Procedure: The invadopodium precursor formation assay was performed as described in Genna et al., 2018 (supra). Briefly, gelatin was conjugated to Alexa 405 dye (Thermo Fisher Scientific). MatTek dishes were treated with 1 N HCl and coated with 50 μg/ml poly-L-lysine. A 0.2% gelatin solution was prepared in PBS, and a 1:20 mixture of Alexa 405-labeled gelatin/unlabeled gelatin was warmed to 37° C. before addition to the poly-L-lysine coated plates. Gelatin was cross-linked with 0.01% glutaraldehyde followed by quenching with 5 mg/ml sodium borohydride. 125,000 MDA-MB-231 cells were plated on Alexa 405-labeled gelatin plates in the presence of 0.1, 1, or 5 μM of Pyk2-PRR peptides or scrambled control for 4 h. At the end of incubation, cells were fixed in 3.7% paraformaldehyde, permeabilized with 0.1% Triton X-100, blocked with 1% FBS, 1% BSA in PBS, and labeled with anti-Tks5 and anti-cortactin. Images were acquired using an inverted fluorescent microscope (Leica AF6000; 63×, NA 1.4, oil objective, Leica LAS AF acquisition software) (Wetzlar, Germany) equipped with an ORCA-Flash 4.0 V2 digital CMOS camera (Hamamatsu Photonics, Shizuoka, Japan).

[4] = target: T2, cortactin-SH3 domain (mouse cortactin SH3 domain, GenBank ID U03184; nucleotides 1468-1641) (mouse, UniProt Q60598 490-546, isotopically labeled (15N, 13C and/or 2H) for NMR); test: NMR chemical shift titration (1H,15N-HSQC), unlabeled peptide into 15N-SH3
T2 construct: domain: SH3 domain; also called purified cortactin-SH3

[5] = target: T2, cortactin-SH3 domain (mouse cortactin …); test: NMR chemical shift titration (1H,15N-HSQC)

T2 sequence (Q60598 490-546 limits assumed): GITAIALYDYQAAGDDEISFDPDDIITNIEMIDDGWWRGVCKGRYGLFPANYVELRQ

CNC(=O)[C@H](Cc1c[nH]c2ccccc12)NC(=O)[C@@H](CC(=O)NO)CC(C)C [GM6001, reference compound]
ECM invasion (MDA-MB-231 cells [1]): fully inhibited

CC(=O)N[C@@H](C(=O)N[C@H](C)C(=O)N[C@H](Cc1ccccc1)C(=O)N[C@H](CCC(N)=O)C(=O)N[C@@H](CCC(=O)O)C(=O)N1CCC[C@H]1C(=O)N1CCC[C@H]1C(=O)N1CCC[C@H]1C(=O)N[C@@H](CCCCN)C(=O)N1CCC[C@H]1C(=O)N[C@@H](CO)C(=O)N[C@@H](CCCNC(=N)N)C(=O)N1CCC[C@H]1C(=O)N[C@@H](CCCCN)C(=O)N[C@@H](Cc1ccc(O)cc1)C(=O)N[C@H](CCCNC(=N)N)C(=O)N1CCC[C@@H]1C(=O)N1CCC[C@@H]1C(=O)N1CCC[C@@H]1C(N)=O)[C@H](C)O [SEQ ID NO: 9, TAFQEPPPKPSRPKYRPPP]
Kd (cortactin SH3 domain; capped Pyk2-PRR2 derivatives, NMR titration isotherm, unit inferred): 15 ± 2 µM

EFTGPPQKPPRLGAQS [Pyk2-PRR3, EFTGPPQKPPRLGAQS]
2D motility (accumulated and Euclidean distances, velocity) (MDA-MB-231 cells [2]): reduced 2D motility; also recorded: minor effect | invadopodia formation and maturation (MDA-MB-231 cells [3]): minor effect

TAFQEPPPKPSR [Δ720-726 deletion mutant, Pyk2-PRR2 truncated to positions 708-719]
loss of affinity (cortactin SH3 domain): 27 fold

TAFQEPPPKPSRPKARPPP [Y722A, Pyk2-PRR2 708-726 with Y722A substitution]
loss of affinity (cortactin SH3 domain): 3.5 fold

B1: Pyk2-PRR3 peptide (SEQ ID NO: 2) (peptide)
peptide: EFTGPPQKPPRLGAQS
notes: Unlabeled synthetic peptide as used in the NMR titration
Kd [4]: 650 µM

HAIYPRHTAFQEPPPKPSRPKYRPPP-NH2 [Tf-tag-Pyk2-PRR2, HAIYPRHTAFQEPPPKPSRPKYRPPP-NH2 (SEQ ID NO: 7 + C-term cap)]
Kd [5]: 8 µM

B2: Pyk2-PRR2-Tf-tag, Ac-TAFQEPPPKPSRPKYRPPPHRPYIAH (SEQ ID NO: 8 + N-term cap) (peptide)
peptide: Ac-TAFQEPPPKPSRPKYRPPPHRPYIAH
notes: Pyk2-PRR2 (human Pyk2 708-726) followed by a C-terminal tag printed as HRPYIAH, the reverse of the Tf tag
Kd [5]: 2 µM
